These results are taken from the RNAGym collection of RNA variant scans (doi:10.1073/pnas.2313332121).

This sample holds only a part of the variants without activity.

To fix the notation:
B1: TPR 5TU (parent)
chain: GGAUCUUCUCGAUCUAACAAAAAAGACAAAUCUGCCACAAAGCUUGAGAGCAUCUUCGGAUGCAGAGGCGGCAGCCUUCGGUGGCGCGAUAGCGCCAACGUUCUCAACUAUGACACGCAAAACGCGUGCUCCGUUGAAUGGAGUUUAUCAUG

The variants in this series derive from B1. In words: polymerase ribozyme fitness, log enrichment relative to wild type (log ratio); higher = more active; in vitro selection for triplet polymerase activity. Summed up: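 Only genotypes with ≥10 input reads and ≥1 read per output were kept after Illumina sequencing of input and output libraries. These libraries were PCR-built, transcribed mutants of each subunit of a heterodimeric triplet polymerase ribozyme, each put through one triplicate in vitro selection round with frozen incubation at −7 °C, gel excision of extended constructs, streptavidin-bead capture and RT-PCR. Fitness is a logarithmic ratio of genotype enrichment to wild-type enrichment, from inverse-variance-weighted replicate averages, with the logarithm in base 2.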
Consider C51U A73U C118G A119C, for which the “polymerase ribozyme fitness (log ratio)” value was -1.81.

Regarding A52C G67C G83U C108U G124U, the “polymerase ribozyme fitness (log ratio)” value is no more than -4.2.

As to A52G C96U, the “polymerase ribozyme fitness (log ratio)” value was -1.46.

Turning to A52G U104G, the “polymerase ribozyme fitness (log ratio)” value is -1.26.

For A52G U82C G92U C93U G126A, the “polymerase ribozyme fitness (log ratio)” value is -1.76.

As to A52G A73G C85U, the “polymerase ribozyme fitness (log ratio)” value is -0.163.

Consider C51U U56A C57A C105G A122G, for which the “polymerase ribozyme fitness (log ratio)” value is -2.19.

For the variant A52G G58C C79U A98U U101G C108A, the “polymerase ribozyme fitness (log ratio)” value was no more than -4.2.

On to C51U G88U U90C G94A C95U A147G, for which the “polymerase ribozyme fitness (log ratio)” value was no more than -4.2.

As for C51U U61A G86C, the “polymerase ribozyme fitness (log ratio)” value was -4.06.

As for A52C C85G C87U G133A G143C, the “polymerase ribozyme fitness (log ratio)” value is -4.07.

For A52C C87A G92C G141A, the “polymerase ribozyme fitness (log ratio)” value is no more than -4.2.

C51U C75U C96U G143C: the “polymerase ribozyme fitness (log ratio)” value is -4.11.

For the variant A52C U55G G58C G59A A66C, the “polymerase ribozyme fitness (log ratio)” value was no more than -4.2.

Consider C51G G83U A110C G140C, for which the “polymerase ribozyme fitness (log ratio)” value is no more than -4.2.

Turning to C51U U56A A73U U78G A91U G141C G152A, the “polymerase ribozyme fitness (log ratio)” value is -3.97.

Take A52G U55A A91C A97U G112A A150U: the “polymerase ribozyme fitness (log ratio)” value is no more than -4.2.

In the case of A52C U55A C85G C116A, the “polymerase ribozyme fitness (log ratio)” value was -3.78.

For the variant C51U A89G C99U A150G, the “polymerase ribozyme fitness (log ratio)” value is -3.67.

Regarding C51U C75G G88A U130A, the “polymerase ribozyme fitness (log ratio)” value is no more than -4.2.

Consider A52G U82A, for which the “polymerase ribozyme fitness (log ratio)” value was -0.467.

Regarding A52G C93G G141C, the “polymerase ribozyme fitness (log ratio)” value is -3.74.

Take A52G C87U G141A U148A: the “polymerase ribozyme fitness (log ratio)” value is no more than -4.2.

As for A52C C103A A147C, the “polymerase ribozyme fitness (log ratio)” value is no more than -4.2.

In the case of A52C C72U C96A C123U, the “polymerase ribozyme fitness (log ratio)” value is -2.72.

For C51U G83C A106G A122U A142U, the “polymerase ribozyme fitness (log ratio)” value was no more than -4.2.

Regarding A52C C93G, the “polymerase ribozyme fitness (log ratio)” value was -3.65.

As for A52C G80C, the “polymerase ribozyme fitness (log ratio)” value was no more than -4.2.

Turning to A52C C57U C85U U135A, the “polymerase ribozyme fitness (log ratio)” value is -1.62.

In the case of A52G A121C, the “polymerase ribozyme fitness (log ratio)” value was -0.337.

Regarding A52C C85A A121G, the “polymerase ribozyme fitness (log ratio)” value is -1.8.

For the variant A52G U56C C93A, the “polymerase ribozyme fitness (log ratio)” value was -2.44.

A52C G62C A120G G140U: the “polymerase ribozyme fitness (log ratio)” value is -4.1.

For A52G A98U, the “polymerase ribozyme fitness (log ratio)” value is -2.02.

With C51U G67A C72A C123U C132A U134C, the “polymerase ribozyme fitness (log ratio)” value was no more than -4.2.

In the case of C51U U82A C95U, the “polymerase ribozyme fitness (log ratio)” value is -1.29.

For A52C C57U C63A C72G U77A C85A A107U A122U G136C U148A, the “polymerase ribozyme fitness (log ratio)” value was no more than -4.2.

As to A52C U77G C79U C87A C95U, the “polymerase ribozyme fitness (log ratio)” value is no more than -4.2.

Turning to A52G G70C U78G C93G G141C, the “polymerase ribozyme fitness (log ratio)” value is no more than -4.2.

As for A52G G58U A66G G70U G92A G100A C116A U148A, the “polymerase ribozyme fitness (log ratio)” value was no more than -4.2.

Regarding A52C G58C A91U A121U, the “polymerase ribozyme fitness (log ratio)” value was no more than -4.2.

For C51U A52G, the “polymerase ribozyme fitness (log ratio)” value was -1.18.

As for A52G C54A, the “polymerase ribozyme fitness (log ratio)” value was -0.998.

For the variant A52U A66G C87G A97G, the “polymerase ribozyme fitness (log ratio)” value was no more than -4.2.

As to A52G U61G A73G, the “polymerase ribozyme fitness (log ratio)” value was -2.84.

Regarding A52G G58U C87U, the “polymerase ribozyme fitness (log ratio)” value is -2.

As for A52C C85A, the “polymerase ribozyme fitness (log ratio)” value is -3.22.

For A52G C108U, the “polymerase ribozyme fitness (log ratio)” value is -2.1.

For C51U C87A, the “polymerase ribozyme fitness (log ratio)” value was no more than -4.2.

With C51U C87U, the “polymerase ribozyme fitness (log ratio)” value is -1.13.

For C51U C96G U144A, the “polymerase ribozyme fitness (log ratio)” value was -1.45.

For A52C C96G, the “polymerase ribozyme fitness (log ratio)” value was -1.36.

With A52C C96A, the “polymerase ribozyme fitness (log ratio)” value was -1.55.

Turning to A52G U56G G83A, the “polymerase ribozyme fitness (log ratio)” value was -2.85.

Turning to A52C G83C C87U A122G, the “polymerase ribozyme fitness (log ratio)” value is no more than -4.2.

As for A52C C54U G68A C93U C103A A106G A110U, the “polymerase ribozyme fitness (log ratio)” value was no more than -4.2.

Turning to C51U A52G A60U A66G C103U A107U C114U C123G G143A, the “polymerase ribozyme fitness (log ratio)” value was no more than -4.2.

With A52C C57U G81C, the “polymerase ribozyme fitness (log ratio)” value was -1.59.

On to C51U G86U, for which the “polymerase ribozyme fitness (log ratio)” value is -1.45.

As for C51U G86A, the “polymerase ribozyme fitness (log ratio)” value is -2.13.

With A52G A137C, the “polymerase ribozyme fitness (log ratio)” value was -3.28.

As for C51U C93G U130C U145A, the “polymerase ribozyme fitness (log ratio)” value is -3.53.

Take A52G U78C A89U: the “polymerase ribozyme fitness (log ratio)” value was -1.24.

As to C51U G59A C85G A137U, the “polymerase ribozyme fitness (log ratio)” value is no more than -4.2.

Take A52C A98G C132G: the “polymerase ribozyme fitness (log ratio)” value was no more than -4.2.

In the case of A52C A91U U148A, the “polymerase ribozyme fitness (log ratio)” value was no more than -4.2.

As to C51G U53C G67C G86U U101G A138U, the “polymerase ribozyme fitness (log ratio)” value is no more than -4.2.

With A52G G88U, the “polymerase ribozyme fitness (log ratio)” value is no more than -4.2.

A52G C85A G140U: the “polymerase ribozyme fitness (log ratio)” value was no more than -4.2.

As to C51U C96U G124A, the “polymerase ribozyme fitness (log ratio)” value is -0.0401.

Regarding C51U A52G C87U A137C, the “polymerase ribozyme fitness (log ratio)” value was no more than -4.2.

As to A52G U78C, the “polymerase ribozyme fitness (log ratio)” value is -0.764.

Consider A52C A97U, for which the “polymerase ribozyme fitness (log ratio)” value was -1.59.

In the case of A52G A107C, the “polymerase ribozyme fitness (log ratio)” value is -3.09.

A52G A107U: the “polymerase ribozyme fitness (log ratio)” value was -3.56.

With C51U A89G A97G G143U, the “polymerase ribozyme fitness (log ratio)” value is -3.43.

For the variant A52C U56A G67C G84A U139G U144A, the “polymerase ribozyme fitness (log ratio)” value is no more than -4.2.

Consider C51U G83U, for which the “polymerase ribozyme fitness (log ratio)” value was -0.266.

In the case of C51U C69A G84U A91G G133A U144A A147U, the “polymerase ribozyme fitness (log ratio)” value is no more than -4.2.

Take A52C C57U G133U: the “polymerase ribozyme fitness (log ratio)” value was no more than -4.2.

Consider A52C C85U U102C, for which the “polymerase ribozyme fitness (log ratio)” value is -2.57.

Turning to A52G U53A A89C C93U, the “polymerase ribozyme fitness (log ratio)” value was -2.02.

For A52U A91U U139G U144A, the “polymerase ribozyme fitness (log ratio)” value is no more than -4.2.

Consider C51U C87G C93G C105G A106C A113G, for which the “polymerase ribozyme fitness (log ratio)” value was no more than -4.2.
